Source: publication PMC10572780, “MucR from Sinorhizobium meliloti: New Insights into Its DNA Targets and Its Ability to Oligomerize” (International Journal of Molecular Sciences, 2023)

Columns and labels:
[1] = target: the molecule itself; assay: SEC-MALS; samples at 1 mg/mL on Superdex 200 in the buffer of the final purification step, 0.5 mL/min; MiniDAWN Treos; higher-order oligomer, no monomer or lower-order oligomers seen
[2] = target: T1, native MucR (Sinorhizobium meliloti 1021, UniProt P55323 2-143); assay: EMSA; 25 mM HEPES pH 7.9, 50 mM KCl, 6.25 mM MgCl2, 5% glycerol; 10 min on ice (plus 10 min on ice after competitor); 5% polyacrylamide gel, 0.5x TBE, room temperature, 200 V, 70 min; conditions: protein: native; tags: none
T1 sequence: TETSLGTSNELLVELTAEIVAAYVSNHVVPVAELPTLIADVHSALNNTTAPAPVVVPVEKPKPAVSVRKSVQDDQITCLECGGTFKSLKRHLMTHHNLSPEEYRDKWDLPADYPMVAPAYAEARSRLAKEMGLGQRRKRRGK

[3] = target: T2, rMucR (recombinant MucR) (Sinorhizobium meliloti 1021, UniProt P55323 1-143); assay: EMSA; 10 pmol DNA; 25 mM HEPES pH 7.9, 50 mM KCl, 6.25 mM MgCl2, 5% glycerol; 10 min on ice (plus 10 min on ice after competitor); 5% polyacrylamide gel, 0.5x TBE, room temperature, 200 V, 70 min; conditions: protein: recombinant; tags: none (pET22b+, NdeI/XhoI, native stop codon in reverse primer); chain copies: 10
T2 sequence: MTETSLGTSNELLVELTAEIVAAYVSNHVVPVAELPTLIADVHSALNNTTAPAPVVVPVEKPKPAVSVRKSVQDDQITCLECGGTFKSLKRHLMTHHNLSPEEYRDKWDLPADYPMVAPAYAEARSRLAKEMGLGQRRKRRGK

[4] = target: T2, rMucR (recombinant MucR); assay: EMSA; minimal length with detectable binding; 25 mM HEPES pH 7.9, 50 mM KCl, 6.25 mM MgCl2, 5% glycerol; 10 min on ice (plus 10 min on ice after competitor); 5% polyacrylamide gel, 0.5x TBE, room temperature, 200 V, 70 min; conditions: protein: recombinant; tags: none (pET22b+, NdeI/XhoI, native stop codon in reverse primer); chain copies: 10
[5] = target: T2, rMucR (recombinant MucR); assay: EMSA; 20 pmol rMucR, 10 pmol DNA, no competitor; 25 mM HEPES pH 7.9, 50 mM KCl, 6.25 mM MgCl2, 5% glycerol; 10 min on ice (plus 10 min on ice after competitor); 5% polyacrylamide gel, 0.5x TBE, room temperature, 200 V, 70 min; conditions: protein: recombinant; tags: none (pET22b+, NdeI/XhoI, native stop codon in reverse primer); chain copies: 10; label: FAM
[6] = target: T2, rMucR (recombinant MucR); assay: competition; vs FAM-rem site3; 5-, 10-, 20-fold excess; does not effectively compete; 25 mM HEPES pH 7.9, 50 mM KCl, 6.25 mM MgCl2, 5% glycerol; 10 min on ice (plus 10 min on ice after competitor); 5% polyacrylamide gel, 0.5x TBE, room temperature, 200 V, 70 min; conditions: protein: recombinant; tags: none (pET22b+, NdeI/XhoI, native stop codon in reverse primer); chain copies: 10

B1: recombinant S. meliloti MucR (natural protein, Sinorhizobium meliloti 1021, UniProt P55323 1-143, looked up)
chain: T2 sequence
notes: Expressed with 100 uM zinc sulfate; Oligomer by SEC-MALS corresponds to a decamer (9 to 12 protomers not excluded); also called rMucR; recombinant MucR; source: E. coli BL21(DE3), pET22b+, purified (cation exchange chromatography, size exclusion chromatography); copies: 10
stoichiometry N [1]: 10

B2: MucR purified from S. meliloti (natural protein, Sinorhizobium meliloti 1021, UniProt P55323 2-143, looked up)
chain: T1 sequence
notes: MucR from Sinorhizobium meliloti 1021, naturally expressed; 9 to 12 protomers not excluded; also called native MucR; naturally expressed MucR; source: endogenous, purified from S. meliloti 1021 (cation exchange chromatography, size exclusion chromatography); copies: 10
stoichiometry N [1]: 10

B3: ndvA upstream region oligonucleotide (dsDNA)
DNA 1: GATAATTCTTCATATCACGCCCGGTCTTGCAGGAAACCTGCAAAAACTCGGAGTCGAGGCATCAAGATAGCTAACGATGAATCAT
DNA 2: ATGATTCATCGTTAGCTATCTTGATGCCTCGACTCCGAGTTTTTGCAGGTTTCCTGCAAGACCGGGCGTGATATGAAGAATTATC
binding result [2]: binds

B4: rem site1 (dsDNA)
DNA 1: ATCACCTACTAGATATAGGCCCAAATCGGC
DNA 2: GCCGATTTGGGCCTATATCTAGTAGGTGAT
binding result [3]: binds

B5: rem site3 18 bp (dsDNA)
DNA 1: ATTCTTAATCAACTATTA
DNA 2: TAATAGTTGATTAAGAAT
binding result [4]: binds

B6: rem site2 (dsDNA)
DNA 1: CATCATGTTAGTGGTAAGGTTAACGATCAC
DNA 2: GTGATCGTTAACCTTACCACTAACATGATG
binding result [3]: binds

B7: rem site3 (dsDNA)
DNA 1: CACGCAATTCTTAATCAACTATTAAAATCC
DNA 2: GGATTTTAATAGTTGATTAAGAATTGCGTG
binding result [3]: binds

B8: FAM-labeled rem site3 (dsDNA)
DNA 1: B7 DNA 1
DNA 2: B7 DNA 2
binding result [5]: binds

B9: rem site3 mut2 (dsDNA)
DNA 1: CGCGCGGCCCCCGGCCGGCCGCCGGGGCCC
DNA 2: GGGCCCCGGCGGCCGGCCGGGGGCCGCGCG
binding result [6]: no binding
